Patent US20250059278A1 (SICHUAN HUIYU PHARMACEUTICAL, published 2025)
Read-outs that look alike come from different tables or passages of the source.

T1: mouse MSLN-his (Kaika Biotech, MSL-MM180) (mouse, UniProt Q61468 298-600, limits assumed)
T1 construct: Bought protein; also called muMSLN-his; muMSLN; not shown: his tag
T1 sequence (looked up): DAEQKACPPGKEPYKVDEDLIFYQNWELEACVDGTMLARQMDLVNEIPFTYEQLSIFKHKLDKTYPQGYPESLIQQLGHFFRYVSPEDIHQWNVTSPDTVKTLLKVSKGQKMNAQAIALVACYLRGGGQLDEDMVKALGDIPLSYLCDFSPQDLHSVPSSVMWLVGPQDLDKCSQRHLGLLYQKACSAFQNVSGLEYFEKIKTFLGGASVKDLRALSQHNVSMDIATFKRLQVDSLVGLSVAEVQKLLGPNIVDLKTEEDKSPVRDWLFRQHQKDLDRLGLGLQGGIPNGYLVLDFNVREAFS


How the values were obtained:
[1] = target: T2, human MSLN-his (Kaika Biotech, MSL-HM18D) (human, UniProt Q13421 296-580, limits assumed); assay: ELISA, coated huMSLN-his
T2 construct: Bought protein; also called huMSLN-his; huMSLN; not shown: his tag

[2] = target: T1, mouse MSLN-his (Kaika Biotech, …); assay: ELISA, coated muMSLN-his
[3] = target: T3, monkey MSLN-his (Kaika Biotech, MSL-CM180) (monkey (cyno)); assay: ELISA, coated cynoMSLN-his
T3 construct: Bought protein; also called cynoMSLN-his; cynoMSLN

[4] = target: T4, Human MSLN on MC38/MSLN stably transfected cells (Example 5) (human, UniProt Q13421 296-598); assay: flow cytometry on MC38/MSLN cells
T4 construct: whole, on cells; also called MC38/MSLN cells; huMSLN

[5] = target: T5, huMSLN-Fc (Kaika Biotech, MSL-HM280) (human, UniProt Q13421 296-580, limits assumed); assay: SPR chip (Carterra), 3C6 captured by anti-DYKDDDDK, huMSLN-Fc in flow
T5 construct: Bought protein; also called huMSLN-hFc; hFc-tagged human MSLN recombinant protein; not shown: Fc (hFc) tag

[6] = target: T6, cynoMSLN-Fc (Kaika Biotech, MSL-CM280) (cyno); assay: SPR chip (Carterra), 3C6 captured by anti-DYKDDDDK, cynoMSLN-Fc in flow
T6 construct: Bought protein

[7] = target: T7, Human CD3 on Jurkat cells (human, UniProt P07766 23-207; P09693 23-182; P04234 22-171); assay: cell-based or functional assay
[8] = target: T8, Monkey CD3 on cynomolgus HSC-F cells (cynomolgus monkey, UniProt Q95LI5 22-198; Q95LI7 23-181; Q95LI8 22-171); assay: flow cytometry on HSC-F cells
T8 construct: whole, on cells; also called Monkey CD3-expressing cynomolgus HSC-F cells; cynomolgus monkey CD3-expressing HSC-F cells

[9] = target: T7, Human CD3 on Jurkat cells; assay: flow cytometry on Jurkat cells
[10] = target: T8, Monkey CD3 on cynomolgus HSC-F cells; assay: flow cytometry on HSC-F cells; remark: listed apart in the source
[11] = target: T7, Human CD3 on Jurkat cells; assay: flow cytometry on Jurkat cells; remark: listed apart in the source
[12] = target: T9, Human CD3εγ recombinant antigen (acrobiosystems, Cat. No. CDG-H52W5) (human, UniProt P07766 23-126; P09693 23-116); assay: SPR chip (Carterra), antibody captured, antigen in flow;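 also: antibodies captured through anti-human IgG Fc at roughly 1000 RU, kinetic constants fitted with a 1:1 binding model in Carterra analysis software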
T9 construct: Bought recombinant protein

T5 sequence (Q13421 other isoform, or with tags, fused parts or gaps limits assumed): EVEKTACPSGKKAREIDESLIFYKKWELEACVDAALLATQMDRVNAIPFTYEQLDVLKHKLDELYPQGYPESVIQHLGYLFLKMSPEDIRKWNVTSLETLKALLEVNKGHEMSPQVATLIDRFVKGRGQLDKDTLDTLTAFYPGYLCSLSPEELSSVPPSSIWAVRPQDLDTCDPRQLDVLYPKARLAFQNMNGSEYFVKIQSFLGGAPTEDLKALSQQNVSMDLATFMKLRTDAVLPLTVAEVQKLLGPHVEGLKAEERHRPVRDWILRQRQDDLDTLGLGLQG
T4 sequence (Q13421 other isoform, or with tags, fused parts or gaps limits assumed): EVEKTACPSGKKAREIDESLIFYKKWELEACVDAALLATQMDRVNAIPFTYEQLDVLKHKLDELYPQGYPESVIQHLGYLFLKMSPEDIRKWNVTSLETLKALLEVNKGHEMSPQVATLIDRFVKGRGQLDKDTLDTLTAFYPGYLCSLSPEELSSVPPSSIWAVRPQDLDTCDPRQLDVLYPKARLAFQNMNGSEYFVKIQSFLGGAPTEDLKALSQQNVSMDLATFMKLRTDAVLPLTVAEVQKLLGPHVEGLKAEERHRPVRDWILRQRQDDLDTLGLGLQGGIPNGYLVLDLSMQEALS

Binder	EC50 [10]	EC50 [11]	Kd [12]	koff [12]	kon [12]	further results
MSLN single-domain antibody 3C6 (VHH, also called MSLN VHH) VHH: EVQLVESGGGLVQAGESLRLSCAVSGNIGSIRHMGWHRQDPGKERELVATITTVGTTYYANFVKGRFTISRDNAKNTVYLQMNSLKPEDTGVYYCRATAHPTDYWGQGTQVTVSS						EC50 [1]: 0.463 nM; EC50 [2]: 28.6 nM; EC50 [3]: 0.788 nM; EC50 [4]: 11.8 nM; Kd [5]: 5.66 nM; koff [5]: 0.000304 s⁻¹; kon [5]: 53600 M⁻¹ s⁻¹; Kd [6]: 1.04 nM; koff [6]: 4.69e-05 s⁻¹; kon [6]: 45300 M⁻¹ s⁻¹
Control antibody 1-3C6 (bispecific antibody, human IgG1, lambda) heavy: not shown light: QAVVTQESALTTSPGETVTLTCRSSTGAVTTSNYANWVQEKPDHLFTGLIGGTNKRAPGVPARFSGSLIGDKAALTITGAQTEDEAIYFCALWYSNLWVFGGGTKLTVLGQPKAAPSVTLFPPSSEELQANKATLVCLISDFYPGAVTVAWKADSSPVKAGVETTTPSKQSNNKYAASSYLSLTPEQWKSHRSYSCQVTHEGSTVEKTVAPTECS						EC50 (nM), activation of Jurkat-TIGIT-luc cells with MC38/MSLN tumor cells [7]: 0.036 nM; EC50 (nM), activation of T cell activation signaling pathway, Jurkat-TIGIT-luc cells without tumor cells [7]: 0.21 nM; EC50 [8]: 0.28 nM; EC50 [9]: 0.222 nM
Positive control bispecific antibody OKT3-3C6 (bispecific antibody, human IgG1, lambda) heavy: not shown light: QIVLTQSPAIMSASPGEKVTMTCSASSSVSYMNWYQQKSGTSPKRWIYDTSKLASGVPAHFRGSGSGTSYSLTISGMEAEDAATYYCQQWSSNPFTFGSGTKLEIGQPKAAPSVTLFPPSSEELQANKATLVCLISDFYPGAVTVAWKADSSPVKAGVETTTPSKQSNNKYAASSYLSLTPEQWKSHRSYSCQVTHEGSTVEKTVAPTECS						binding result [8]: no binding (tested: 2 µg/ml starting concentration); EC50 [9]: 0.0736 nM
CD3 monoclonal antibody M37 (antibody, human IgG1, lambda, V domains shown, IgG: VH37 + IgG1 mutant CH, VL-1 + CL) VH: EVQLVESGGGLVQPGGSLRLSCAASGFTFNTYAMNWVRQAPGKGLEWVARIRSKYNNYATYYADSVKDRFTISRDDSKSILYLQMNNLKTEDTAMYYCVRHANFSNSYVSWFAYWGQGTLVTVSS VL: not shown	0.398 nM	0.211 nM	5.31 nM	0.0043 s⁻¹	810000 M⁻¹ s⁻¹	
CD3 monoclonal antibody M40 (antibody, human IgG1, lambda, V domains shown, IgG: VH40 + IgG1 mutant CH, VL-1 + CL) VH: EVQLVESGGGLVQPGGSLRLSCAASGFTFNTYAMNWVRQAPGKGLEWVARIRSKYNNYATYYADSVKDRFTISRDDSKSSLYLQMNNLKTEDTAMYYCVRAGNFGNSYVSWFQYWGQGTLVTVSS VL: not shown	0.407 nM	3.41 nM	1.28 nM	0.00055 s⁻¹	431000 M⁻¹ s⁻¹	
CD3 monoclonal antibody M38 (antibody, human IgG1, lambda, V domains shown, IgG: VH38 + IgG1 mutant CH, VL-1 + CL) VH: EVQLVESGGGLVQPGGSLRLSCAASGFTFNTYAMNWVRQAPGKGLEWVARIRSKYNNYATYYADSVKDRFTISRDDSKSSLYLQMNNLKTEDTAVYYCVRHGNFLNSYVSWFQYWGQGTLVTVSS VL: not shown	0.161 nM	0.176 nM	2.33 nM	0.00268 s⁻¹	1.15e+06 M⁻¹ s⁻¹	
CD3 monoclonal antibody M41 (antibody, human IgG1, lambda, V domains shown, IgG: VH41 + IgG1 mutant CH, VL-1 + CL) VH: EVQLVESGGGLVQPGGSLRLSCAASGFTFNTYAMNWVRQAPGKGLEWVARIRSKYNNYATYYADSVKGRFTISRDDSKSSLYLQMNNLKTEDTAMYYCVRHSNFQNSYVSWFAYWGQGTLVTVSS VL: not shown	0.13 nM	0.751 nM	1.52 nM	0.00513 s⁻¹	3.38e+06 M⁻¹ s⁻¹	
CD3 monoclonal antibody M45 (antibody, human IgG1, lambda, V domains shown, IgG: VH45 + IgG1 mutant CH, VL-1 + CL) VH: EVQLVESGGGLVQPGGSLRLSCAASGFTFNTYAMNWVRQAPGKGLEWVARIRSKYNNYATYYADSVKDRFTISRDDSKSSLYLQMNNLKTEDTAMYYCVRHSNFGNSYVSWFQYWGQGTLVTVSS VL: not shown	0.156 nM	0.415 nM	1.87 nM	0.00344 s⁻¹	1.85e+06 M⁻¹ s⁻¹	
CD3 monoclonal antibody M42 (antibody, human IgG1, lambda, V domains shown, IgG: VH42 + IgG1 mutant CH, VL-1 + CL) VH: EVQLVESGGGLVQPGGSLRLSCAASGFTFNTYAMNWVRQAPGKGLEWVARIRSKYNNYATYYADSVKGRFTISRDDSKSSLYLQMNNLKTEDTAMYYCVRHGNFQNSYVSWFQYWGQGTLVTVSS VL: not shown	0.143 nM	0.431 nM	1.15 nM	0.00137 s⁻¹	1.19e+06 M⁻¹ s⁻¹	
CD3 monoclonal antibody M43 (antibody, human IgG1, lambda, V domains shown, IgG: VH43 + IgG1 mutant CH, VL-1 + CL) VH: EVQLVESGGGLVQPGGSLRLSCAASGFTFNTYAMNWVRQAPGKGLEWVARIRSKYNNYATYYADSVKDRFTISRDDSKSILYLQMNSLKTEDTAMYYCVRPGNFPNSYVSWFALWGQGTLVTVSS VL: not shown	8.24 nM	10.2 nM	13.3 nM	0.0016 s⁻¹	120000 M⁻¹ s⁻¹	
CD3 monoclonal antibody M46 (antibody, human IgG1, lambda, V domains shown, IgG: VH46 + IgG1 mutant CH, VL-1 + CL) VH: EVQLVESGGGLVQPGGSLRLSCAASGFTFNTYAMNWVRQAPGKGLEWVARIRSKYNNYATYYADSVKDRFTISRDDSKSILYLQMNSLKTEDTAMYYCVRHANFGNSYVSWFASWGQGTLVTVSS VL: not shown	0.148 nM	0.338 nM	2.05 nM	0.00205 s⁻¹	999000 M⁻¹ s⁻¹	
CD3 monoclonal antibody M44 (antibody, human IgG1, lambda, V domains shown, IgG: VH44 + IgG1 mutant CH, VL-1 + CL) VH: EVQLVESGGGLVQPGGSLRLSCAASGFTFNTYAMNWVRQAPGKGLEWVARIRSKYNNYATYYADSVKDRFTISRDDSKSSLYLQMNNLKTEDTAMYYCVRHGNFQNSYISWFAYWGQGTLVTVSS VL: not shown	0.141 nM	1.61 nM	3.33 nM	0.00334 s⁻¹	1e+06 M⁻¹ s⁻¹	
CD3 monoclonal antibody M39 (antibody, human IgG1, lambda, V domains shown, IgG: VH39 + IgG1 mutant CH, VL-1 + CL) VH: EVQLVESGGGLVQPGGSLRLSCAASGFTFNTYAMNWVRQAPGKGLEWVARIRSKYNNYATYYADSVKDRFTISRDDSKSSLYLQMNNLKTEDTAMYYCVRHQNFGNSYVSWFQYWGQGTLVTVSS VL: not shown	0.498 nM	0.759 nM	29.7 nM	0.0305 s⁻¹	1.02e+06 M⁻¹ s⁻¹	
